The target in this assay is Mal3 (UniProt Q10113). Kind of assay: Mal3-GST pull-down from yeast lysate. The note with it: reference: wild-type Klp2-GFP; sites S113,S123.

Results on one substance are retold here after publication PMC3510020.

Consider Klp2 (from UniProt Q9US03) Klp2-2A-GFP, for which the “binding against the reference” value is listed as “stronger”.
